Molecular target: T1, SEMA4D-V5 (expressed from pDESTSEMA4D-V5) (UniProt Q92854 22-862, limits assumed)
T1 construct: Control membrane protein co-transfected in 293T cells
T1 sequence (looked up): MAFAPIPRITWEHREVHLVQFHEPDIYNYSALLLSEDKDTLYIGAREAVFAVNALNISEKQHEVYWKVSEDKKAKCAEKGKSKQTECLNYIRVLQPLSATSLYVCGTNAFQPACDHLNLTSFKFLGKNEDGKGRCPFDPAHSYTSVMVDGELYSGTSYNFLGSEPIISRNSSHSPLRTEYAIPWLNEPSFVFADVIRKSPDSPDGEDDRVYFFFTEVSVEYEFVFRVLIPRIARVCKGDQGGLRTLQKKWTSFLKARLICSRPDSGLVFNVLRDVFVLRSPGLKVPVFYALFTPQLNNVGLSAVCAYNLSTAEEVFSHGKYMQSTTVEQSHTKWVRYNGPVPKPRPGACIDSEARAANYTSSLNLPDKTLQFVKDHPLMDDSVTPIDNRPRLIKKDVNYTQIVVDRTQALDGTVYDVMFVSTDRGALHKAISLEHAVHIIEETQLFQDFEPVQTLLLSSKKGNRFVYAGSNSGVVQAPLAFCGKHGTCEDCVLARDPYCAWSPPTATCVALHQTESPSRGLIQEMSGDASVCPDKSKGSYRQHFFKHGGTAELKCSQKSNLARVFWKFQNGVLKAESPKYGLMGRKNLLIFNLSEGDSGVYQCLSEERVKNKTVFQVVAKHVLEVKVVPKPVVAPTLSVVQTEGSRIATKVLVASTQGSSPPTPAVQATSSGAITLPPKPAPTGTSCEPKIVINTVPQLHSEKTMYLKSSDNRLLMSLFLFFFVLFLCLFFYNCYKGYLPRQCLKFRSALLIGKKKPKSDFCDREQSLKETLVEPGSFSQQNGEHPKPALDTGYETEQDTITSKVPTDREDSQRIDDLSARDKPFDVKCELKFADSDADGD
Assay: co-immunoprecipitation (anti-HA or anti-V5) and western blot from lysates of co-transfected 293T cells
Protocol: Cells were harvested 72-hours later by scraping in 1 ml PBS. The pellets were lyzed on ice for 60 mins. in 500 ul lysis buffer: 50 mM Tris-HCl; pH7.5, 150 mM NaCl, 1 mM EDTA, 1% NP40, 0.25% Deoxycholate, 50 mMNaF, 20 mM Na3OV4 and protease inhibitors. 1 mM PMSF (0.3M stock solution in DMSO) was added to the lysis buffer before use. DNA was sheared with a needle. Lysates were then spun down for 10 mins. at 14,000 rpm. 200 ul cell lysates were incubated, overnight at 4° C. with gentle rocking, with lug of either rabbit polyclonal antibody to HA or V5 epitope tag (abcam; ab9110-100 and ab9116-100, respectively).
The next morning, a suspension protein A/G (50:50) agarose beads was washed twice in PBS then in lysis buffer. The beads (50% slurry) were incubated on ice in the lysis buffer for one hour. 30 ul of the proteinA/G suspension were added to the lysates and the mixture incubated for 4 hours at 4° C. with gentle rocking. Beads were then washed 3 times with 1 ml lysis buffer. Beads were resuspended in 30 μl sample buffer.
After protein transfer to membrane blots. Membranes were blocked over-night in PBST-5% Milk. The next day blots of the immunoprecipitation with V5 antibody were incubated with HA hybridoma supernatant (dilution 1:1000) for 1 hour whereas blots of the immunoprecipitation with HA antibody were incubated with V5-HRP (dilution 1:5000)

binding result: no binding
B1: HA-tm-PTPε (expressed from pDisplayHA tm-PTPε-FL#9) (receptor, not shown: small tags and cut ends)
chain: LRGNETTADSNETTTTSGPPDPGASQPLLAWLLLPLLLLLLVLLLAAYFFRFRKQRKAVVSTSDKKMPNGILEEQEQQRVMLLSRSPSGPKKYFPIPVEHLEEEIRIRSADDCKQFREEFNSLPSGHIQGTFELANKEENREKNRYPNILPNDHSRVILSQLDGIPCSDYINASYIDGYKEKNKFIAAQGPKQETVNDFWRMVWEQKSATIVMLTNLKERKEEKCHQYWPDQGCWTYGNIRVCVEDCVVLVDYTIRKFCIQPQLPDGCKAPRLVSQLHFTSWPDFGVPFTPIGMLKFLKKVKTLNPVHAGPIVVHCSAGVGRTGTFIVIDAMMAMMHAEQKVDVFEFVSRIRNQRPQMVQTDMQYTFIYQALLEYYLYGDTELDVSSLEKHLQTMHGTTTHFDKIGLEEEFRKLTNVRIMKENMRTGNLPANMKKARVIQIIPYDFNRVILSMKRGQEYTDYINASFIDGYRQKDYFIATQGPLAHTVEDFWRMIWEWKSHTIVMLTEVQEREQDKCYQYWPTEGSVTHGEITIEIKNDTLSEAISIRDFLVTLNQPQARQEEQVRVVRQFHFHGWPEIGIPAEGKGMIDLIAAVQKQQQQTGNHPITVHCSAGAGRTGTFIALSNILERVKAEGLLDVFQAVKSLRLQRPHMVQTLEQYEFCYKVVQDFIDIFSDYANFK
notes: Transiently expressed in 293T cells and tested from cell lysates; The tag is placed N-terminal on the strength of the name

Source: patent US20090317391A1 (Novartis, published 2009)
